Test results: paper PMC8677719

Test system: GST-Co-NF-kB RHD-only (Capsaspora owczarzaki)
Experiment: PBM
Settings: ~300 nM protein; EMSA: 10 mM HEPES pH 7.8, 50 mM KCl, 1 mM DTT, 1 mM EDTA, 4% glycerol, 40 ug/ml poly-dI-dC, 2X BSA, 50 ug 293T extract, 30 C 30 min; PBM: 6 mM HEPES pH 7.8 …

Row | Sequence | binding signal [PBM z-score]
1 | CCGATTAACATCAAGGAATTCCCTGATGTTAATCGG (double strand) [PBM probe AGGAATTCCC] | 4.22
2 | CCGATTAACATCACGGAATTCCCTGATGTTAATCGG (double strand) [PBM probe CGGAATTCCC] | 3.4
3 | CCGATTAACATCAGGAATTCCCATGATGTTAATCGG (double strand) [PBM probe GGAATTCCCA] | 4.61
4 | CCGATTAACATCAGGAATTCCCCTGATGTTAATCGG (double strand) [PBM probe GGAATTCCCC] | 7.64
5 | CCGATTAACATCAGGGAATTCCCTGATGTTAATCGG (double strand) [PBM probe GGGAATTCCC] | 7.25
